Ends that are not written are not given here.
What was measured:
[1] = target: T1, soluble guanylyl cyclase alpha 1 (sGCα1) (UniProt Q02108 1-690); experiment: cell-based or functional assay
T1 sequence (looked up): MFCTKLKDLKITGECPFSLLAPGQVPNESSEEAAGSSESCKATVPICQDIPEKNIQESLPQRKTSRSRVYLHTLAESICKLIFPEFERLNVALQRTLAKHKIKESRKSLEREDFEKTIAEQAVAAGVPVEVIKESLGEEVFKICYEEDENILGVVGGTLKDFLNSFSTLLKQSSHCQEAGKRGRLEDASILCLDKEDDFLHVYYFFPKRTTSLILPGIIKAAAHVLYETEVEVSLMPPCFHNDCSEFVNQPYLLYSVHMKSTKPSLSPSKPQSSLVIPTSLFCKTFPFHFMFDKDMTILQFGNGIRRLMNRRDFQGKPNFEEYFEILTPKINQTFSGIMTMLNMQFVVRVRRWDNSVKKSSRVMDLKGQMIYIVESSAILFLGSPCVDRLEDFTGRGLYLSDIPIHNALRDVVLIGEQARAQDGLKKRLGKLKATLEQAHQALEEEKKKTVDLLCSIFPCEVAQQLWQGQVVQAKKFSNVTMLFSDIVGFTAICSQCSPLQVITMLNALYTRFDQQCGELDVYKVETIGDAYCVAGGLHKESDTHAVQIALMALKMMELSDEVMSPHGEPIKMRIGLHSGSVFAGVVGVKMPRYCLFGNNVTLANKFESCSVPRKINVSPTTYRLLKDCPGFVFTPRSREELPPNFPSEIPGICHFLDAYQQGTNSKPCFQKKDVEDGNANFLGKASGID

[2] = target: T1, soluble guanylyl cyclase alpha 1 (sGCα1); experiment: competitive binding assay

## FCKAFRRRRRRRR-NH2 [Peptide FF5-8R]
[1]
  IC50 (µM), cytotoxicity, Day 3, LNCaP cell culture: 22 µM
  IC50 (µM), cytotoxicity, Day 6, LNCaP cell culture: 40 µM

## Ac-TFCKAFPFHIIRRRRRRRR-OH [Peptide A-8R]
[1]
  IC50 (µM), cytotoxicity, Day 3, LNCaP cell culture: 8 µM
  IC50 (µM), cytotoxicity, Day 6, LNCaP cell culture: 16 µM

## FAKAFRRRRRRRR-NH2 [Peptide FF5-C2A-8R]
[1]
  IC50 (µM), cytotoxicity, Day 3, LNCaP cell culture: ~210 µM
  IC50 (µM), cytotoxicity, Day 6, LNCaP cell culture: 145 µM

## FMKAFRRRRRRRR-NH2 [Peptide FF5-C2M-8R]
[1]
  IC50 (µM), cytotoxicity, Day 3, LNCaP cell culture: 90 µM
  IC50 (µM), cytotoxicity, Day 6, LNCaP cell culture: 65 µM

## ACKAFRRRRRRRR-NH2 [Peptide FF5-F1A-8R]
[1]
  IC50 (µM), cytotoxicity, Day 3, LNCaP cell culture: 200 µM
  IC50 (µM), cytotoxicity, Day 6, LNCaP cell culture: 160 µM

## FCKARRRRRRRR [Peptide FA4-8R]
[1]
  IC50 (µM), cytotoxicity, Day 3, LNCaP cell culture: 43 µM
  IC50 (µM), cytotoxicity, Day 6, LNCaP cell culture: 90 µM

## FCKAARRRRRRRR-NH2 [Peptide FF5-F5A-8R]
[1]
  IC50 (µM), cytotoxicity, Day 3, LNCaP cell culture: 160 µM
  IC50 (µM), cytotoxicity, Day 6, LNCaP cell culture: 120 µM

## TFCRRRRRRRR [Peptide TC3-8R]
[1]
  IC50 (µM), cytotoxicity, Day 3, LNCaP cell culture: 72 µM
  IC50 (µM), cytotoxicity, Day 6, LNCaP cell culture: 140 µM

## TFCKAFPRRRRRRRR-NH2 [Peptide TP7-8R]
[1]
  IC50 (µM), cytotoxicity, Day 3, LNCaP cell culture: 16 µM
  IC50 (µM), cytotoxicity, Day 6, LNCaP cell culture: 23 µM

## KAFPRRRRRRRR [Peptide KP4-8R]
[2]
  binding result: no binding

## FCKAFPRRRRRRRR-NH2 [Peptide FP6-8R]
[1]
  IC50 (µM), cytotoxicity, Day 3, LNCaP cell culture: 22 µM
  IC50 (µM), cytotoxicity, Day 6, LNCaP cell culture: 35 µM

## TFCKAFRRRRRRRR-NH2 [Peptide TF6-8R]
[1]
  IC50 (µM), cytotoxicity, Day 3, LNCaP cell culture: 18 µM
  IC50 (µM), cytotoxicity, Day 6, LNCaP cell culture: 28 µM

## FCAAFRRRRRRRR-NH2 [Peptide FF5-K3A-8R]
[1]
  IC50 (µM), cytotoxicity, Day 3, LNCaP cell culture: 60 µM
  IC50 (µM), cytotoxicity, Day 6, LNCaP cell culture: 38 µM

## CKAFRRRRRRRR-NH2 [Peptide CF4-8R]
[1]
  IC50 (µM), cytotoxicity, Day 3, LNCaP cell culture: 62 µM
  IC50 (µM), cytotoxicity, Day 6, LNCaP cell culture: 120 µM

From US20140088023A1 (UNIVERSITY OF TOLEDO, published 2014)
